Source: patent publication US20120172293A1 (Takeda / Millennium, published 2012)
Non-standard residues stand in square brackets, D forms with d. No end group written: not given here. *: point of attachment. Morpholinocarbonyl = O=C(N1CCOCC1)*; Amidino = amidino group, N=C(N)*; tBuAla = CC(C)(C)C[C@H](N)C(=O)O; Cha = N[C@@H](CC1CCCCC1)C(=O)O; 4Amb = NCc1ccc(C(=O)O)cc1; Orn = NCCC[C@H](N)C(=O)O; Aib = CC(C)(N)C(=O)O; Carbamoyl = NC(=O)*

T1: human Y2 receptor (human, UniProt P49146 1-381)
T1 construct: whole, on cells; used as membrane fraction of hY2R/CHO cells; also called human NPY2R; hY2R
T1 sequence (looked up): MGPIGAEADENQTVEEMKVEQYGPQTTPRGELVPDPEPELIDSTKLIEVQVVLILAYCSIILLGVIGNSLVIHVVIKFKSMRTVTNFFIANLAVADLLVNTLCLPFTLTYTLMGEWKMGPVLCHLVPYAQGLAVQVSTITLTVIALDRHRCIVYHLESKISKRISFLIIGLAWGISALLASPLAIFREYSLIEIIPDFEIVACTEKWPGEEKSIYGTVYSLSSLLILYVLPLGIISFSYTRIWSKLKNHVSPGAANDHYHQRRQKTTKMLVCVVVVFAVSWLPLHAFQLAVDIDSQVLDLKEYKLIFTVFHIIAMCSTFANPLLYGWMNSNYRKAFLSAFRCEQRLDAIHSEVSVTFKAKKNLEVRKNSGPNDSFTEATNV

B1: Ac-[Glu23, D-Pro24, Cha27,36, Aib28,31, Lys30]-PYY(23-36) (peptide)
peptide: Ac-E[dP]RH[Cha][Aib]NK[Aib]TRQR[Cha]-NH2
SMILES: CC(=O)N[C@@H](CCC(=O)O)C(=O)N1CCC[C@@H]1C(=O)N[C@@H](CCCNC(=N)N)C(=O)N[C@@H](Cc1c[nH]cn1)C(=O)N[C@@H](CC1CCCCC1)C(=O)NC(C)(C)C(=O)N[C@@H](CC(N)=O)C(=O)N[C@@H](CCCCN)C(=O)NC(C)(C)C(=O)N[C@H](C(=O)N[C@@H](CCCNC(=N)N)C(=O)N[C@@H](CCC(N)=O)C(=O)N[C@@H](CCCNC(=N)N)C(=O)N[C@@H](CC1CCCCC1)C(N)=O)[C@@H](C)O
notes: also called compound No. 171
B2: Ac-[Gly24, Cha27,28,36, Aib31]-PYY(23-36) (peptide)
peptide: Ac-SGRH[Cha][Cha]NL[Aib]TRQR[Cha]-NH2
SMILES: CC(=O)N[C@@H](CO)C(=O)NCC(=O)N[C@@H](CCCNC(=N)N)C(=O)N[C@@H](Cc1c[nH]cn1)C(=O)N[C@@H](CC1CCCCC1)C(=O)N[C@@H](CC1CCCCC1)C(=O)N[C@@H](CC(N)=O)C(=O)N[C@@H](CC(C)C)C(=O)NC(C)(C)C(=O)N[C@H](C(=O)N[C@@H](CCCNC(=N)N)C(=O)N[C@@H](CCC(N)=O)C(=O)N[C@@H](CCCNC(=N)N)C(=O)N[C@@H](CC1CCCCC1)C(N)=O)[C@@H](C)O
notes: also called compound No. 112
B3: Morpholinocarbonyl-[Glu23, D-Pro24, Cha27,28,36, Lys30, Aib31]-PYY(23-36) (peptide)
peptide: Morpholinocarbonyl-E[dP]RH[Cha][Cha]NK[Aib]TRQR[Cha]-NH2
SMILES: C[C@@H](O)[C@H](NC(=O)C(C)(C)NC(=O)[C@H](CCCCN)NC(=O)[C@H](CC(N)=O)NC(=O)[C@H](CC1CCCCC1)NC(=O)[C@H](CC1CCCCC1)NC(=O)[C@H](Cc1c[nH]cn1)NC(=O)[C@H](CCCNC(=N)N)NC(=O)[C@H]1CCCN1C(=O)[C@H](CCC(=O)O)NC(=O)N1CCOCC1)C(=O)N[C@@H](CCCNC(=N)N)C(=O)N[C@@H](CCC(N)=O)C(=O)N[C@@H](CCCNC(=N)N)C(=O)N[C@@H](CC1CCCCC1)C(N)=O
notes: also called compound No. 191
B4: Amidino-[Glu23, D-Pro24, Cha27,28,36, Lys30, Aib31]-PYY(23-36) (peptide)
peptide: Amidino-E[dP]RH[Cha][Cha]NK[Aib]TRQR[Cha]-NH2
SMILES: C[C@@H](O)[C@H](NC(=O)C(C)(C)NC(=O)[C@H](CCCCN)NC(=O)[C@H](CC(N)=O)NC(=O)[C@H](CC1CCCCC1)NC(=O)[C@H](CC1CCCCC1)NC(=O)[C@H](Cc1c[nH]cn1)NC(=O)[C@H](CCCNC(=N)N)NC(=O)[C@H]1CCCN1C(=O)[C@H](CCC(=O)O)NC(=N)N)C(=O)N[C@@H](CCCNC(=N)N)C(=O)N[C@@H](CCC(N)=O)C(=O)N[C@@H](CCCNC(=N)N)C(=O)N[C@@H](CC1CCCCC1)C(N)=O
notes: also called compound No. 190
B5: Amidino-[D-Pro24, Cha27,36, Leu(Me)28, Lys30, Aib31]-PYY(23-36) (peptide)
peptide: Amidino-S[dP]RH[Cha][tBuAla]NK[Aib]TRQR[Cha]-NH2
SMILES: C[C@@H](O)[C@H](NC(=O)C(C)(C)NC(=O)[C@H](CCCCN)NC(=O)[C@H](CC(N)=O)NC(=O)[C@H](CC(C)(C)C)NC(=O)[C@H](CC1CCCCC1)NC(=O)[C@H](Cc1c[nH]cn1)NC(=O)[C@H](CCCNC(=N)N)NC(=O)[C@H]1CCCN1C(=O)[C@H](CO)NC(=N)N)C(=O)N[C@@H](CCCNC(=N)N)C(=O)N[C@@H](CCC(N)=O)C(=O)N[C@@H](CCCNC(=N)N)C(=O)N[C@@H](CC1CCCCC1)C(N)=O
notes: also called compound No. 186
B6: Ac-[Tyr23, D-Pro24, Cha27,28,36, Aib31]-PYY(23-36) (peptide)
peptide: Ac-Y[dP]RH[Cha][Cha]NL[Aib]TRQR[Cha]-NH2
SMILES: CC(=O)N[C@@H](Cc1ccc(O)cc1)C(=O)N1CCC[C@@H]1C(=O)N[C@@H](CCCNC(=N)N)C(=O)N[C@@H](Cc1c[nH]cn1)C(=O)N[C@@H](CC1CCCCC1)C(=O)N[C@@H](CC1CCCCC1)C(=O)N[C@@H](CC(N)=O)C(=O)N[C@@H](CC(C)C)C(=O)NC(C)(C)C(=O)N[C@H](C(=O)N[C@@H](CCCNC(=N)N)C(=O)N[C@@H](CCC(N)=O)C(=O)N[C@@H](CCCNC(=N)N)C(=O)N[C@@H](CC1CCCCC1)C(N)=O)[C@@H](C)O
notes: also called compound No. 162
B7: Morpholinocarbonyl-[Asp23, D-Pro24, Cha27,28,36, Aib31]-PYY(23-36) (peptide)
peptide: Morpholinocarbonyl-D[dP]RH[Cha][Cha]NL[Aib]TRQR[Cha]-NH2
SMILES: CC(C)C[C@H](NC(=O)[C@H](CC(N)=O)NC(=O)[C@H](CC1CCCCC1)NC(=O)[C@H](CC1CCCCC1)NC(=O)[C@H](Cc1c[nH]cn1)NC(=O)[C@H](CCCNC(=N)N)NC(=O)[C@H]1CCCN1C(=O)[C@H](CC(=O)O)NC(=O)N1CCOCC1)C(=O)NC(C)(C)C(=O)N[C@H](C(=O)N[C@@H](CCCNC(=N)N)C(=O)N[C@@H](CCC(N)=O)C(=O)N[C@@H](CCCNC(=N)N)C(=O)N[C@@H](CC1CCCCC1)C(N)=O)[C@@H](C)O
notes: also called compound No. 173
B8: Morpholinocarbonyl-[Glu23, D-Pro24, Cha27,28,36, Aib31]-PYY(23-36) (peptide)
peptide: Morpholinocarbonyl-E[dP]RH[Cha][Cha]NL[Aib]TRQR[Cha]-NH2
SMILES: CC(C)C[C@H](NC(=O)[C@H](CC(N)=O)NC(=O)[C@H](CC1CCCCC1)NC(=O)[C@H](CC1CCCCC1)NC(=O)[C@H](Cc1c[nH]cn1)NC(=O)[C@H](CCCNC(=N)N)NC(=O)[C@H]1CCCN1C(=O)[C@H](CCC(=O)O)NC(=O)N1CCOCC1)C(=O)NC(C)(C)C(=O)N[C@H](C(=O)N[C@@H](CCCNC(=N)N)C(=O)N[C@@H](CCC(N)=O)C(=O)N[C@@H](CCCNC(=N)N)C(=O)N[C@@H](CC1CCCCC1)C(N)=O)[C@@H](C)O
notes: also called compound No. 174
B9: Carbamoyl-[Asp23, D-Pro24, Cha27,28,36, Aib31]-PYY(23-36) (peptide)
peptide: Carbamoyl-D[dP]RH[Cha][Cha]NL[Aib]TRQR[Cha]-NH2
SMILES: CC(C)C[C@H](NC(=O)[C@H](CC(N)=O)NC(=O)[C@H](CC1CCCCC1)NC(=O)[C@H](CC1CCCCC1)NC(=O)[C@H](Cc1c[nH]cn1)NC(=O)[C@H](CCCNC(=N)N)NC(=O)[C@H]1CCCN1C(=O)[C@H](CC(=O)O)NC(N)=O)C(=O)NC(C)(C)C(=O)N[C@H](C(=O)N[C@@H](CCCNC(=N)N)C(=O)N[C@@H](CCC(N)=O)C(=O)N[C@@H](CCCNC(=N)N)C(=O)N[C@@H](CC1CCCCC1)C(N)=O)[C@@H](C)O
notes: also called compound No. 161; ureido-[Asp23,D-Pro24,Cha27,28,36,Aib31]-PYY(23-36)
B10: Ac-[Glu23, D-Pro24, Cha27,36, Leu(Me)28, Lys30, Aib31]-PYY(23-36) (peptide)
peptide: Ac-E[dP]RH[Cha][tBuAla]NK[Aib]TRQR[Cha]-NH2
SMILES: CC(=O)N[C@@H](CCC(=O)O)C(=O)N1CCC[C@@H]1C(=O)N[C@@H](CCCNC(=N)N)C(=O)N[C@@H](Cc1c[nH]cn1)C(=O)N[C@@H](CC1CCCCC1)C(=O)N[C@@H](CC(C)(C)C)C(=O)N[C@@H](CC(N)=O)C(=O)N[C@@H](CCCCN)C(=O)NC(C)(C)C(=O)N[C@H](C(=O)N[C@@H](CCCNC(=N)N)C(=O)N[C@@H](CCC(N)=O)C(=O)N[C@@H](CCCNC(=N)N)C(=O)N[C@@H](CC1CCCCC1)C(N)=O)[C@@H](C)O
notes: also called compound No. 168
B11: Morpholinocarbonyl-[D-Pro24, Cha27,36, Leu(Me)28, Lys30, Aib31]-PYY(23-36) (peptide)
peptide: Morpholinocarbonyl-S[dP]RH[Cha][tBuAla]NK[Aib]TRQR[Cha]-NH2
SMILES: C[C@@H](O)[C@H](NC(=O)C(C)(C)NC(=O)[C@H](CCCCN)NC(=O)[C@H](CC(N)=O)NC(=O)[C@H](CC(C)(C)C)NC(=O)[C@H](CC1CCCCC1)NC(=O)[C@H](Cc1c[nH]cn1)NC(=O)[C@H](CCCNC(=N)N)NC(=O)[C@H]1CCCN1C(=O)[C@H](CO)NC(=O)N1CCOCC1)C(=O)N[C@@H](CCCNC(=N)N)C(=O)N[C@@H](CCC(N)=O)C(=O)N[C@@H](CCCNC(=N)N)C(=O)N[C@@H](CC1CCCCC1)C(N)=O
notes: also called compound No. 187
B12: 4-Aminomethylbenzoyl-[Orn25, Ala26, Ile28,31]-PYY(25-36) (peptide)
peptide: [4Amb][Orn]AYINLITRQRY-NH2
modifications: N-terminus assumed
SMILES: CC[C@H](C)[C@H](NC(=O)[C@H](Cc1ccc(O)cc1)NC(=O)[C@H](C)NC(=O)[C@H](CCCN)NC(=O)c1ccc(CN)cc1)C(=O)N[C@@H](CC(N)=O)C(=O)N[C@@H](CC(C)C)C(=O)N[C@H](C(=O)N[C@H](C(=O)N[C@@H](CCCNC(=N)N)C(=O)N[C@@H](CCC(N)=O)C(=O)N[C@@H](CCCNC(=N)N)C(=O)N[C@@H](Cc1ccc(O)cc1)C(N)=O)[C@@H](C)O)[C@@H](C)CC
notes: also called compound No. 10

target: T1, human Y2 receptor; experiment: RBA: [125I]-PYY displacement, hY2R/CHO membranes
Experimental: After incubation at room temperature for 60 minutes, the mixture was filtered through the cell harvester FilterMate (PerkinElmer) using UniFilter-96 GF/C treated with polyethylenimine (PEI) solution (20 mM Tris, 0.3% PEI, pH 7.4), and the filter was washed 3 times with a filtering buffer (50 mM Tris, 5 mM MgCl₂, 150 mM NaCl, 0.03% NaN₃, 0.05% CHAPS, pH 7.4). Thereafter, UniFilter-96 GF/C was dried in a mechanical drier for 1 hour, 15 μl of the liquid scintillator MicroScint O (PerkinElmer) was added to each well, and a measurement was taken using TopCount (PerkinElmer). The data obtained were analyzed using Prism to calculate the IC₅₀ value.

IC50 Ratio (vs PYY(3-36)) [ratio] | Binder
2.9 | B1
6.3 | B2
1.4 | B3
0.66 | B4
0.43 | B5
5.2 | B6
2.9 | B7
1.9 | B8
4.1 | B9
0.73 | B10
0.66 | B11
39 | B12

target: T1, human Y2 receptor; experiment: cell-based or functional assay

GBA EC50 Ratio (vs PYY(3-36)), [35S]GTPγS [ratio] | Binder
1.6 | B1
3.9 | B2
1.4 | B3
0.77 | B4
0.69 | B5
2.6 | B6
1.4 | B7
1 | B8
2.4 | B9
1.1 | B10
0.84 | B11
18 | B12
